Assays:
Type in all cases: biochemical, Escherichia coli
[1] = substrate: CCC(=O)SCCNC(=O)CCNC(=O)[C@H](O)C(C)(C)COP(=O)(O)OP(=O)(O)OC[C@H]1O[C@@H](n2cnc3c(N)ncnc32)[C@H](O)[C@@H]1OP(=O)(O)O; assay: Michaelis-Menten kinetics of purified enzyme, LDH-coupled NADH assay (KM); details: glycyl radical (activated by PFL-AE)
[2] = substrate: O=CO; assay: as above; details: glycyl radical (activated by PFL-AE)
[3] = substrate: N[C@@H](CO)C(=O)O; assay: Michaelis-Menten kinetics of purified enzyme, DTNB assay (KM)
[4] = substrate: CC(=O)SCCNC(=O)CCNC(=O)[C@H](O)C(C)(C)COP(=O)(O)OP(=O)(O)OC[C@H]1O[C@@H](n2cnc3c(N)ncnc32)[C@H](O)[C@@H]1OP(=O)(O)O; assay: Michaelis-Menten kinetics of purified enzyme, DTNB assay of released CoA (KM)
purified protein [5] = substrate: CCC(=O)SCCNC(=O)CCNC(=O)[C@H](O)C(C)(C)COP(=O)(O)OP(=O)(O)OC[C@H]1O[C@@H](n2cnc3c(N)ncnc32)[C@H](O)[C@@H]1OP(=O)(O)O; assay: purified protein; details: glycyl radical (activated by PFL-AE)
purified protein [6] = substrate: N[C@@H](CCOC(=O)CCC(=O)O)C(=O)O; assay: purified protein; details: pyridoxal-5'-phosphate

B1: TdcE (2-ketobutyrate formate-lyase) (Escherichia coli K-12) (protein)
chain: MKVDIDTSDKLYADAWLGFKGTDWKNEINVRDFIQHNYTPYEGDESFLAEATPATTELWEKVMEGIRIENATHAPVDFDTNIATTITAHDAGYINQPLEKIVGLQTDAPLKRALHPFGGINMIKSSFHAYGREMDSEFEYLFTDLRKTHNQGVFDVYSPDMLRCRKSGVLTGLPDGYGRGRIIGDYRRVALYGISYLVRERELQFADLQSRLEKGEDLEATIRLREELAEHRHALLQIQEMAAKYGFDISRPAQNAQEAVQWLYFAYLAAVKSQNGGAMSLGRTASFLDIYIERDFKAGVLNEQQAQELIDHFIMKIRMVRFLRTPEFDSLFSGDPIWATEVIGGMGLDGRTLVTKNSFRYLHTLHTMGPAPEPNLTILWSEELPIAFKKYAAQVSIVTSSLQYENDDLMRTDFNSDDYAIACCVSPMVIGKQMQFFGARANLAKTLLYAINGGVDEKLKIQVGPKTAPLMDDVLDYDKVMDSLDHFMDWLAVQYISALNIIHYMHDKYSYEASLMALHDRDVYRTMACGIAGLSVATDSLSAIKYARVKPIRDENGLAVDFEIDGEYPQYGNNDERVDSIACDLVERFMKKIKALPTYRNAVPTQSILTITSNVVYGQKTGNTPDGRRAGTPFAPGANPMHGRDRKGAVASLTSVAKLPFTYAKDGISYTFSIVPAALGKEDPVRKTNLVGLLDGYFHHEADVEGGQHLNVNVMNREMLLDAIEHPEKYPNLTIRVSGYAVRFNALTREQQQDVISRTFTQAL
**Q.** B1 was tested. Which Km [1] did it give?
**A.** The Km was 520 ± 81 µM.

**Q.** And the Vmax [1]?
**A.** Its Vmax is 2.1 µmol/min/mg.

**Q.** What about the kcat [1] of the same protein?
**A.** Its kcat is 3.2 ± 0.2 s⁻¹.

**Q.** What about the Km [2] of the same protein?
**A.** Its Km is 20 ± 3 mM.

**Q.** What about the Vmax [2] of the same protein?
**A.** Its Vmax is 1.8 µmol/min/mg.

**Q.** What about the kcat [2] of the same protein?
**A.** The kcat was 2.7 ± 0.1 s⁻¹.

B2: serine acetyltransferase (CysE) (Escherichia coli K-12) (protein)
chain: MSCEELEIVWNNIKAEARTLADCEPMLASFYHATLLKHENLGSALSYMLANKLSSPIMPAIAIREVVEEAYAADPEMIASAACDIQAVRTRDPAVDKYSTPLLYLKGFHALQAYRIGHWLWNQGRRALAIFLQNQVSVTFQVDIHPAAKIGRGIMLDHATGIVVGETAVIENDVSILQSVTLGGTGKSGGDRHPKIREGVMIGAGAKILGNIEVGRGAKIGAGSVVLQPVPPHTTAAGVPARIVGKPDSDKPSMDMDQHFNGINHTFEYGDGI
**Q.** What does the source list for B2?
**A.** Km [3]: 0.8 ± 0.3 mM; Km [4]: 0.6 ± 0.2 mM

B3: pyruvate formate-lyase (PFL, PflB) (Escherichia coli K-12) (protein)
chain: SELNEKLATAWEGFTKGDWQNEVNVRDFIQKNYTPYEGDESFLAGATEATTTLWDKVMEGVKLENRTHAPVDFDTAVASTITSHDAGYINKQLEKIVGLQTEAPLKRALIPFGGIKMIEGSCKAYNRELDPMIKKIFTEYRKTHNQGVFDVYTPDILRCRKSGVLTGLPDAYGRGRIIGDYRRVALYGIDYLMKDKLAQFTSLQADLENGVNLEQTIRLREEIAEQHRALGQMKEMAAKYGYDISGPATNAQEAIQWTYFGYLAAVKSQNGAAMSFGRTSTFLDVYIERDLKAGKITEQEAQEMVDHLVMKLRMVRFLRTPEYDELFSGDPIWATESIGGMGLDGRTLVTKNSFRFLNTLYTMGPSPEPNMTILWSEKLPLNFKKFAAKVSIDTSSLQYENDDLMRPDFNNDDYAIACCVSPMIVGKQMQFFGARANLAKTMLYAINGGVDEKLKMQVGPKSEPIKGDVLNYDEVMERMDHFMDWLAKQYITALNIIHYMHDKYSYEASLMALHDRDVIRTMACGIAGLSVAADSLSAIKYAKVKPIRDEDGLAIDFEIEGEYPQFGNNDPRVDDLAVDLVERFMKKIQKLHTYRDAIPTQSVLTITSNVVYGKKTGNTPDGRRAGAPFGPGANPMHGRDQKGAVASLTSVAKLPFAYAKDGISYTFSIVPNALGKDDEVRKTNLAGLMDGYFHHEASIEGGQHLNVNVMNREMLLDAMENPEKYPQLTIRVSGYAVRFNSLTKEQQQDVITRTFTQSM
**Q.** With B3 as the protein, how does the Km (purified protein [5]) read?
**A.** Its Km is 830 ± 580 µM.

**Q.** And the Vmax (purified protein [5])?
**A.** Its Vmax is 1.1 µmol/min/mg.

**Q.** What about the kcat (purified protein [5]) of the same protein?
**A.** The kcat was 1.7 ± 0.9 s⁻¹.

**Q.** And the Km [2]?
**A.** Its Km is 69 ± 11 mM.

**Q.** What about the Vmax [2] of the same protein?
**A.** Its Vmax is 0.59 µmol/min/mg.

**Q.** And the kcat [2]?
**A.** The kcat was 0.9 ± 0.05 s⁻¹.

B4: cystathionine γ-synthase (MetB) (Escherichia coli K-12) (protein)
chain: MTRKQATIAVRSGLNDDEQYGCVVPPIHLSSTYNFTGFNEPRAHDYSRRGNPTRDVVQRALAELEGGAGAVLTNTGMSAIHLVTTVFLKPGDLLVAPHDCYGGSYRLFDSLAKRGCYRVLFVDQGDEQALRAALAEKPKLVLVESPSNPLLRVVDIAKICHLAREVGAVSVVDNTFLSPALQNPLALGADLVLHSCTKYLNGHSDVVAGVVIAKDPDVVTELAWWANNIGVTGGAFDSYLLLRGLRTLVPRMELAQRNAQAIVKYLQTQPLVKKLYHPSLPENQGHEIAARQQKGFGAMLSFELDGDEQTLRRFLGGLSLFTLAESLGGVESLISHAATMTHAGMAPEARAAAGISETLLRISTGIEDGEDLIADLENGFRAANKG
**Q.** Which Km (purified protein [6]) does the source give for B4 here?
**A.** The Km was 0.60 ± 0.08 mM.

Reference: publication PMC7476758, “Underground isoleucine biosynthesis pathways in E. coli” (eLife, 2020)
